Source: paper PMC5601897, “The catalytic subunit of DNA polymerase δ inhibits γTuRC activity and regulates Golgi-derived microtubules” (Nature Communications, 2017)

Target: γ-tubulin ring complex (γTuRC), purified (human (endogenous in HEK293T), UniProt P23258 1-451; Q9BSJ2 1-902; Q96CW5 1-907; Q9UGJ1 1-667; Q96RT8 1-1024; Q96RT7 …)
Assay: cell-based or functional assay

B1: recombinant FLAG-PolD1 (wild type), purified (natural protein, human, UniProt P28340 1-1107, looked up)
chain: MDGKRRPGPGPGVPPKRARGGLWDDDDAPRPSQFEEDLALMEEMEAEHRLQEQEEEELQSVLEGVADGQVPPSAIDPRWLRPTPPALDPQTEPLIFQQLEIDHYVGPAQPVPGGPPPSRGSVPVLRAFGVTDEGFSVCCHIHGFAPYFYTPAPPGFGPEHMGDLQRELNLAISRDSRGGRELTGPAVLAVELCSRESMFGYHGHGPSPFLRITVALPRLVAPARRLLEQGIRVAGLGTPSFAPYEANVDFEIRFMVDTDIVGCNWLELPAGKYALRLKEKATQCQLEADVLWSDVVSHPPEGPWQRIAPLRVLSFDIECAGRKGIFPEPERDPVIQICSLGLRWGEPEPFLRLALTLRPCAPILGAKVQSYEKEEDLLQAWSTFIRIMDPDVITGYNIQNFDLPYLISRAQTLKVQTFPFLGRVAGLCSNIRDSSFQSKQTGRRDTKVVSMVGRVQMDMLQVLLREYKLRSYTLNAVSFHFLGEQKEDVQHSIITDLQNGNDQTRRRLAVYCLKDAYLPLRLLERLMVLVNAVEMARVTGVPLSYLLSRGQQVKVVSQLLRQAMHEGLLMPVVKSEGGEDYTGATVIEPLKGYYDVPIATLDFSSLYPSIMMAHNLCYTTLLRPGTAQKLGLTEDQFIRTPTGDEFVKTSVRKGLLPQILENLLSARKRAKAELAKETDPLRRQVLDGRQLALKVSANSVYGFTGAQVGKLPCLEISQSVTGFGRQMIEKTKQLVESKYTVENGYSTSAKVVYGDTDSVMCRFGVSSVAEAMALGREAADWVSGHFPSPIRLEFEKVYFPYLLISKKRYAGLLFSSRPDAHDRMDCKGLEAVRRDNCPLVANLVTASLRRLLIDRDPEGAVAHAQDVISDLLCNRIDISQLVITKELTRAASDYAGKQAHVELAERMRKRDPGSAPSLGDRVPYVIISAAKGVAAYMKSEDPLFVLEHSLPIDTQYYLEQQLAKPLLRIFEPILGEGRAEAVLLRGDHTRCKTVLTGKVGGLLAFAKRRNCCIGCRTVLSHQGAVCEFCQPRESELYQKEVSHLNALEERFSRLWTQCQRCQGSLHEDVICTSRDCPIFYMRKKVRKDLEDQEQLLRRFGPPGPEAW
IC50 of inhibition of in vitro microtubule nucleation by purified γTuRCs reconstituted with CDK5RAP2(51–200) (28 nM); PolD1 at various concentrations: 98 nM
